Experiments:
[1] = test system: cs221B; experiment: FRET titration and kinetics, labeled extended hinge vs peptide cs221B; type: binding; conditions: Effector cs221B; method FRET
Description: AlexaFluor™ 555 C2 maleimide (donor) and AlexaFluor™ 647 C2 maleimide (acceptor) were purchased from ThermoFisherScientific. Stock solutions at −5 mM were prepared by dissolving 1 mg of each dye in 200 μl DMSO. Hinge variants containing two cysteines were expressed and purified as described above with the modification that 0.5 mM TCEP was used during lysis, IMAC and SEC, and that the buffer for initial SEC contained 20 mM sodium phosphate (PH 7.0) instead of Tris-HCl. After SEC, 500 μl hinge at a concentration of 50 μM was incubated with 500 μM of a single dye for controls or 250 μM each of two dyes. […]
(§1) The buffer for all FRET measurements was 20 mM Tris-HCl, 100 mM NaCl, 0.05% v/v TWEEN®20 at pH 8. Fluorescence spectra were recorded at room temperature using a FluoroMax™ spectrometer in a 1 cm×1 cm cuvette at a sample volume of 3 ml. FRET titrations and kinetics measurements were performed at 25° C. in 96-well plates (Corning 3686) using a Synergy Neo2™ plate reader. […]
Titrations were carried out in 96-well format, with 4 replicates per plate and 24 data points per titration (23 steps of two-fold serial dilution of effector (peptide or 3hb) in the presence of double-labeled hinge at a constant concentration of 2 nM) with a final sample volume of 80 μl per well. […] The raw fluorescence signal (donor emission upon acceptor excitation) was fitted to the equation […]

[2] = test system: 3hb21; experiment: FRET titration and kinetics, labeled extended hinge vs 3hb21; type: binding
3hb21, sequence (as listed by the source): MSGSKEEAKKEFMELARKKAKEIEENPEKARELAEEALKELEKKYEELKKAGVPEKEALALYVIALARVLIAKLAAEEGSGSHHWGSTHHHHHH
Description: (§2) AlexaFluor™ 555 C2 maleimide (donor) and AlexaFluor™ 647 C2 maleimide (acceptor) were purchased from ThermoFisherScientific. Stock solutions at −5 mM were prepared by dissolving 1 mg of each dye in 200 μl DMSO. Hinge variants containing two cysteines were expressed and purified as described above with the modification that 0.5 mM TCEP was used during lysis, IMAC and SEC, and that the buffer for initial SEC contained 20 mM sodium phosphate (PH 7.0) instead of Tris-HCl. After SEC, 500 μl hinge at a concentration of 50 μM was incubated with 500 μM of a single dye for controls or 250 μM each of two dyes. After 2 h incubation at room temperature, samples were purified by SEC using a buffer containing 20 mM Tris-HCl and 100 mM NaCl at pH 8.
(§3) The buffer for all FRET measurements was 20 mM Tris-HCl, 100 mM NaCl, 0.05% v/v TWEEN®20 at pH 8. Fluorescence spectra were recorded at room temperature using a FluoroMax™ spectrometer in a 1 cm×1 cm cuvette at a sample volume of 3 ml. FRET titrations and kinetics measurements were performed at 25° C. in 96-well plates (Corning 3686) using a Synergy Neo2™ plate reader. Excitation wavelength was 520 nm and emission wavelength was 665 nm (except for donor-donor controls for which emission wavelength was 555 nm, see FIG. 13B right column).
(§4) Titrations were carried out in 96-well format, with 4 replicates per plate and 24 data points per titration (23 steps of two-fold serial dilution of effector (peptide or 3hb) in the presence of double-labeled hinge at a constant concentration of 2 nM) with a final sample volume of 80 μl per well. […] The raw fluorescence signal (donor emission upon acceptor excitation) was fitted to the equation
(§5) Fitting was performed using the scipy.optimize.curve_fit python function (53). Uncertainties for KD values are standard deviation errors calculated from the covariance matrix of the fits. […]
(§6) For FRET kinetics experiments a 2× hinge solution and 8 different 2× effector solutions at different concentrations were prepared separately. […] Fluorescence signals S at each concentration were fitted individually to the equation […]

[3] = test system: off-target peptides; experiment: Pairwise FRET titrations of labeled hinges with off-target peptides; type: binding; conditions: 2 nM labeled hinge; off-target peptides at μM concentrations; flat lines
Description: A critical feature of two-state switches in biology and technology is the coupling between the state control mechanism and the populations of the two states. To quantitatively investigate the thermodynamics and kinetics of the effector induced switching between the two states of our designed hinges, we used Forster resonance energy transfer (FRET). […]
as §1, §4

[4] = test system: TAMRA-cs074B; experiment: Fluorescence polarization (FP) titration and kinetics, hinge vs TAMRA-cs074B; type: binding; conditions: 1 nM peptide cs074B, varying hinge; FIG. 10
TAMRA-cs074B, sequence (as listed by the source): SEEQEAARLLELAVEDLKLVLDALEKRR
Description: (§7) All FP measurements were performed at 25° C. in 96-well plates (Corning 3686) using a Synergy Neo2™ plate reader and a 530/590 nm filter cube. The buffer for all FP measurements was 20 mM Tris-HCl, 100 mM NaCl, 0.05% v/v TWEEN20 at pH 8. Titrations were carried out in 96-well format, with 4 replicates per plate and 24 data points per titration (23 steps of two-fold serial dilution of hinges in the presence of TAMRA-labeled peptide at a constant concentration between 0.1 nM and 1 nM) with a final sample volume of 80 μl per well. Titration plates were incubated overnight at room temperature before measuring to ensure complete equilibration. The polarization signal S (as calculated by the Neo2™ software) was fitted to the equation
(§8) where fAB is the fraction of peptide that is bound, Atot is the absolute hinge concentration, Btot is the absolute peptide concentration, S0 is the baseline polarization of free peptide, and S1 is the change in polarization upon complex formation.
(§9) Fitting was performed using the scipy.optimize.curve_fit python function (53). Uncertainties for KD values are standard deviation errors calculated from the covariance matrix of the fits. In cases where the fitted KD was lower than the concentration of the labeled peptide Btot, we report the KD as KD<Btot.
(§10) For FP kinetics experiments a 2× peptide solution and 8 different 2× hinge solutions at different concentrations were prepared separately. 40 μl of each hinge solution were mixed with 40 μl peptide solution using a multichannel pipet and the measurement was started immediately after mixing. Polarization signals S at each concentration were fitted individually to the equation
(§11) where S0 is the amplitude, S1 is the polarization at equilibrium, kapp is the apparent rate constant, t is the time after start of the measurement, and t0 is the dead time between mixing and start of the measurement. For each hinge-peptide pair, the apparent rate constants for 8 different concentrations are fitted to the equation
(§12) where koff and kon are observed off- and on rates and Atot is the absolute hinge concentration.

[5] = test system: TAMRA-cs201B; experiment: FP titration and kinetics, hinge vs TAMRA-cs201B; type: binding; conditions: for binding in FP titration: 1 nM peptide cs201B, varying hinge, FIG. 10
TAMRA-cs201B, sequence (as listed by the source): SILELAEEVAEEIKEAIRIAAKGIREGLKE
Description: as §7, §8, §9, §10, §11, §12

[6] = test system: TAMRA-cs221B; experiment: FP titration and kinetics, hinge vs TAMRA-cs221B; type: binding; conditions: 1 nM peptide cs221B, varying hinge; FIG. 10
TAMRA-cs221B, sequence (as listed by the source): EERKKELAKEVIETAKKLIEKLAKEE
Description: as §7, §8, §9, §10, §11, §12

[7] = test system: original peptides fused to superfolder green fluorescent protein (sfGFP); experiment: SEC binding experiments with original peptides fused to sfGFP; conditions: FIG. 17C
Description: Individual hinge and sfGFP-fused peptides or 3hb were diluted in 20 mM Tris pH 8, 100 mM NaCl and mixed at approximately 1:1 concentrations. 0.5-1 mL of the resulting samples were injected onto a Superdex™ 200 Increase 10/300 GL columns and the absorbance at 230 nm was used as a readout for binding. For sfGFP-fused peptides, 473 nm was also used as readout. Mixtures were at a total concentration of 2. μM or higher.

[8] = test system: cs201B; experiment: FRET titration and kinetics, labeled extended hinge vs peptide cs201B; type: binding
Description: as §2, §3, §4, §5, §6

[9] = test system: TAMRA-js007B; experiment: FP titration and kinetics, hinge vs TAMRA-js007B; type: binding
TAMRA-js007B, sequence (as listed by the source): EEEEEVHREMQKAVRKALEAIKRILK
Description: as §7, §8
Fitting was performed using the scipy.optimize.curve_fit python function (53). Uncertainties for KD values are standard deviation errors calculated from the covariance matrix of the fits. In cases where the fitted KD was lower than the concentration of the labeled peptide Btot, we report the KD as KD<Btot. […]

B1: cs221F: extended hinge cs221 for FRET labeling, SEQ ID NO:31 (protein)
chain: MSGEMVEEIEKLAEELAKKTKDCEVKKLAKKAAELAKKSTDEMKKEIVKDALELALRTKDEEVIRLALKAAVLAAESDDEEVKEVVKKALEAALKSKDEEVIRLLLLAAVLAAAAARSGSPEEKLEIAKKALELAMKSKDEEVIRLALLAAVLAARSDDEEVLKIVKKALELAMESKDVEVIRLALEAAVLAARSTDPEKKKCVYEALEKAMESKDEEEIKKELKAAVEKARSTEGSGSHHWGSTHHHHHH
Question: How did the kon [1] turn out when B1 was run?
Answer: 2600 M⁻¹ s⁻¹

Question: And the kon ([2]; Effector 3hb21, method FRET, 5 nM hinge)?
Answer: 13000 M⁻¹ s⁻¹

Question: And the “binding compared with the original peptide cs221B” value ([2]; FRET)?
Answer: significantly tighter

Question: And the “KD, times stronger than the KD of the original peptide cs221B” value ([2]; FRET titration, 2 nM hinge)?
Answer: at least 20 times

Question: What about the “off-target FRET titration outcome” value [3] of the same molecule?
Answer: no conformational change

B2: csw20: cs201-derived hinge redesigned to bind peptide cs074B, SEQ ID NO:18 (protein)
chain: MSGMEEVKELVEKAEELAKEAEELIKKAKKTGNPELLKEALRKLKEAVELAKEAVELDPEHEEAIELLARLAEKLLEVAKLLIELAKKTGNPELLKEALRALKEAREALRLAAEHAPEDAKLLARLAARLAELALLIAKILIELAKKTGNPELLLKALKVLTLAVEAVEAALEADPRLKEAVRVAKELAEVLKELAKLAKELAKKTGNEELKEAAKEAEEVAKRAEELAREAEGSGSHHWGSTHHHHHH
Question: With B2 as the molecule, how does the “binding in FP titration” value [4] read?
Answer: most strongly

Question: And the “binding in FP titration” value [5]?
Answer: still binds

Question: What about the “binding in FP titration” value [6] of the same molecule?
Answer: weaker than the new target

B3: cs230: designed hinge protein, SEQ ID NO:12 (protein)
chain: MSGTKEEKERIERIEKEVRSPDPENILEAVRKALELFRENPSEEAKELLKRAIEAALRSEDERAILEALRAALEAYRQGAGDREGLLEAIRVAIRRAAESEDERAILEAVRAARILLEAERTEEAKELLRVAIERAKKSPDPEAQREAKRAEEELRKEDGSGSHHWGSTHHHHHH
Question: Which “SEC binding experiment with sfGFP-fused original peptide” value [7] does the source give for B3 here?
Answer: higher-order peaks

B4: cs201: designed hinge protein, SEQ ID NO:7 (protein)
chain: MSGDEEVQEAVERAEELREEAEELIKKARKTGDPELLRKALEALKEAVRAVREAIKRNPDNEEAIKTALRLARELRKVAKELIERARKTGDAELLKKALEAARVAVEAVRLAAEYNKENAEKMAELLVELAELAREVADVLIELAEKTGDPELLKKALEVLEEAVEAVRLAIEYDPDHEEAVETAKRLAEELRKVAELLEERAKETGDPELQELAKRAKEVADRARELAKKSNGSGSHHWGSTHHHHHH
Question: For B4, which kon ([5]; Effector TAMRA-cs201B, method FP) is on record?
Answer: 6700 M⁻¹ s⁻¹

B5: cs201F: extended hinge cs201 for FRET labeling, SEQ ID NO:30 (protein)
chain: MSGDEEVQEAVERAEELREEAEELIKKARKTGDPELLRKALEALEEAVRAVEEAICRNPDNDEAVETAVRLARELKKVAEELQERAKKTGDPELLKLALRALEVAVRAVELAIKSNPDNDEAVETAVRLARELKKVAEELQERAKKTGDPELLKLALRALEVAVRAVELAIKRNPDNEEAIKTALRLARELRKVAKELIERARKTGDAELLKKALEAARVAVEAVRLAAEYNKENAEKMAELLVELAELAREVADVLIELAEKTGDPELLKKALEVLEEAVEAVRLAIEYDPDHDEAVETAVRLARELKKVAEELQERAKKTGDPELLKLALRALEVAVRAVELAIKSNPDNEEAVETAKRLAEELRKVAELLEERAKETGDPCLQELAKRAKEVADRARELAKKSNPNNGSGSHHWGSTHHHHHH
Question: Which results are given for B5?
Answer: reversibility of hinge conformational change ([8]; 30 nM FRET-labeled hinge, peptide added, then excess unlabeled hinge cs201): fully reversible; kon ([8]; Effector cs201B, method FRET): 4500 M⁻¹ s⁻¹; off-target FRET titration outcome [3]: no conformational change

B6: csw13: cs201-derived hinge redesigned to bind peptide cs221B, SEQ ID NO:17 (protein)
chain: MSGNEEVKKLVEEAKKYLKEAEEYIKKAKKTGNEELLEKALKLLEKALELVKKAIELDPNNKEAIEQAVEIARALNEVAELLIEEAKKTGNEELLEKALEALEAANEALKLAIENNENDKELLAEIAVELAEVGVLLAEVLIEEAKKTGDPELLKLALEVLEAAVEALELALKLDPNNEEAVELAEEAAKLLEEVAKELKEEAKKTGDPELEKLAKEAEELAKRAKELAERQRGSGSHHWGSTHHHHHH
Question: What does the source list for B6?
Answer: binding in FP titration [4]: not binding; binding in FP titration [5]: not binding; binding in FP titration [6]: specifically binds; binding in FP titration ([9]; 1 nM peptide js007B, varying hinge, FIG. 10): not binding

B7: js007: designed hinge protein, SEQ ID NO:11 (protein)
chain: MSGSEEVNERVKQLAEKAKEATDKEEVIEIVKELAELAKQSTDPNLVAEVVRALTEVAKTSTDTELIQEIVKVLLELARRLTDPQLLLEVLKSIAELLKELAEKTGNETAKLAALVAQIAAEVVEMALRAEKTHPGSEIVKLAVELVQKVAEIVLIAAQLMLDKPNSDEVRKVLKEVEKVAREALKALREAKRHPDSQKARDEIKEASQKAEEVKERIERAQEGSGSHHWGSTHHHHHH
Question: With B7 as the molecule, how does the kon ([9]; Effector TAMRA-js007B, method FP) read?
Answer: 78000 M⁻¹ s⁻¹

From US20250236644A1, “De Novo Designed Stimulus-responsive Two-state Hinge Proteins” (University of Washington, priority 2024, published 2025)
